Experimental data from patent publication US20090004680A1.

Biological target: Mouse synaptosomes (BoNT/A acceptor on a mouse synaptosome preparation)

## Active BoNT/A (botulinum neurotoxin type A) (from UniProt P0DPI0 2-1296)
  maximum percent inhibition: 78%
